The values below come from US20070041999A1 (published 2007).

This series concerns the molecule itself. Nature of the series: disassembly by dialysis, size exclusion chromatography / SEC-HPLC; self-association of capsid protein. Here is the method:
Dissasembly of plant produced CCMV virus particles: Purified CCMV was disassembled by dialysis against buffer A (50 mM Tris HCl pH7.5, 500 mM CaCl₂, 1 mM DTT, 0.2 mM PMSF) for 16-29 hours at 4° C. The disassembled virus was centrifuged at 14,000 rpm for 15 min at 4° C. to pellet the viral RNA. The remaining supernatant was dialyzed against buffer B (200 mM Tris HCl pH7.5, 1M NaCl, 1 mM DTT, 0.2 mM PMSF) for 2 hours at 4° C. The CCMV dissasembled into capsid protein dimers that were further purified by FPLC Superose 12 size exclusion chromatography. The diassambled CCMV was analyzed by SEC-HPLC (FIG. 8).

B1: Wild type CCMV coat protein encoded by sgRNA4 (other)
chain: STVGTGKLTRAQRRAAARKNKRNTRVVQPVIVEPIASGQGKAIKAWTGYSVSKWTASCAAAEAKVTSAITISLPNELSSERNKQLKVGRVLLWLGLLPSVSGTVKSCVTETQTTAAASFQVALAVADNSKDVVAAMYPEAFKGITLEQLTADLTIYLYSSAALTEGDVIVHLEVEHVRPTFDDSFTPVY
notes: also called CCMV CP; CCMV capsid protein
Turning to B1, the binding result is listed as “binds”.
